Data: patent publication US20040071710A1

Tests used:
[1] = molecular target: E2 BEVS, recombinant HCV genotype 1b E2 protein produced in insect cells using Baculovirus (hepatitis C virus genotype 1b); assay: ELISA, E2-BEVS coated at 2 µg/ml, antibody at 1 µg/ml
[2] = molecular target: E2 CHO, recombinant HCV genotype 1b E2 protein produced in mammalian CHO cells (hepatitis C virus genotype 1b); assay: BIAcore 2000 (SPR)
[3] = molecular target: E2 BEVS, recombinant HCV genotype 1b E2 protein produced in insect cells using Baculovirus (hepatitis C virus genotype 1b); assay: BIAcore 2000 (SPR)
[4] = molecular target: E2 BEVS, recombinant HCV genotype 1b E2 protein produced in insect cells using Baculovirus (hepatitis C virus genotype 1b); assay: ELISA, E2-BEVS coated at 2 µg/ml, antibody at 0.25 µg/ml
[5] = molecular target: E2 BEVS, recombinant HCV genotype 1b E2 protein produced in insect cells using Baculovirus (hepatitis C virus genotype 1b); assay: ELISA, E2-BEVS coated at 2 µg/ml, antibody at 0.0625 µg/ml
[6] = molecular target: E2 BEVS, recombinant HCV genotype 1b E2 protein produced in insect cells using Baculovirus (hepatitis C virus genotype 1b); assay: ELISA, E2-BEVS coated at 2 µg/ml, antibody at 0.0078 µg/ml
[7] = molecular target: E2 BEVS, recombinant HCV genotype 1b E2 protein produced in insect cells using Baculovirus (hepatitis C virus genotype 1b); assay: ELISA, E2-BEVS coated at 2 µg/ml, antibody at 0.0156 µg/ml
[8] = molecular target: E2 BEVS, recombinant HCV genotype 1b E2 protein produced in insect cells using Baculovirus (hepatitis C virus genotype 1b); assay: ELISA, E2-BEVS coated at 2 µg/ml, antibody at 0.5 µg/ml
[9] = molecular target: HCV particles from sera of HCV infected patients (hepatitis C virus genotype 1b and 1a/1b); assay: immuno magnetic separation of virus from patient serum, RT-PCR detection
[10] = molecular target: E2 BEVS, recombinant HCV genotype 1b E2 protein produced in insect cells using Baculovirus (hepatitis C virus genotype 1b); assay: ELISA, E2-BEVS coated at 2 µg/ml, antibody at 0.125 µg/ml
[11] = molecular target: E2 BEVS, recombinant HCV genotype 1b E2 protein produced in insect cells using Baculovirus (hepatitis C virus genotype 1b); assay: ELISA, E2-BEVS coated at 2 µg/ml, antibody at 0.03125 µg/ml

E2 CHO, recombinant HCV genotype 1b E2 protein produced in mammalian CHO cells (hepatitis C virus genotype 1b), sequence (P26664 384-714): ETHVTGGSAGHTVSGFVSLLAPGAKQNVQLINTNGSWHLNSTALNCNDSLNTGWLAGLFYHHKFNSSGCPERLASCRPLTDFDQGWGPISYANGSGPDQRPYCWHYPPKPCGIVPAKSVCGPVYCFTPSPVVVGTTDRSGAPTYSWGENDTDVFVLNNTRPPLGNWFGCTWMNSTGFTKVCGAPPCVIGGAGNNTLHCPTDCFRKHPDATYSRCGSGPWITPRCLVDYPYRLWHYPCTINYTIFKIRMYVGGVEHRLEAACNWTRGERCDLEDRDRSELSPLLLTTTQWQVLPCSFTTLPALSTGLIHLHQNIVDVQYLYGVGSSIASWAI

B1: HCV-AB 68 (antibody, V domains shown)
VH: QVQLVESGGGVVQPGRSLRLSCATSGFPFSSYGMHWVRQAPGKGLEWVAVISYDGSNEHSIDSVKGRFTISRDNSKNRLYLQMKSLRAEDMAVYFCVRGAHRSSWSGKRFDYWGQGTLVTVSS
VL: DIQMTQSPSTLSASIGDRVTITCRASLNILTWLAWYQQKPGKAPKLLIYEASSLESGVPSRFSGSGSGTQFTLTISSLQPDDFATYYCQQSNTPWTFGQGTKVEIKR
[1]
  OD450 nm: 0.439 OD450 nm
[2]
  Kd: 0.014 nM
[3]
  Kd: 1.7 nM
[4]
  OD450 nm: 0.305 OD450 nm
[5]
  OD450 nm: 0.204 OD450 nm
[6]
  OD450 nm: 0.065 OD450 nm
[7]
  OD450 nm: 0.12 OD450 nm
[8]
  OD450 nm: 0.362 OD450 nm
[9]
  percentage of bound virus: 50%
[10]
  OD450 nm: 0.267 OD450 nm
[11]
  OD450 nm: 0.171 OD450 nm
